From patent US20250313627A1

Key:
[1] = target: human ROR1 (Receptor Tyrosine Kinase-Like Orphan Receptor 1) on the cell surface (human) (UniProt Q01973); assay: flow cytometry, B16-F10 cells expressing human ROR1 (high density)
[2] = target: human ROR1 (Receptor Tyrosine Kinase-Like Orphan Receptor 1) on the cell surface (human) (UniProt Q01973); assay: as above; remark: listed apart in the source
[3] = target: human ROR1 (Receptor Tyrosine Kinase-Like Orphan Receptor 1) on the cell surface (human) (UniProt Q01973); assay: as above; remark: listed apart in the source
[4] = target: human ROR1 (Receptor Tyrosine Kinase-Like Orphan Receptor 1) on the cell surface (human) (UniProt Q01973); assay: flow cytometry, LS174T cells expressing human ROR1 (low density)
[5] = target: human ROR1 (Receptor Tyrosine Kinase-Like Orphan Receptor 1) on the cell surface (human) (UniProt Q01973); assay: flow cytometry, B16-F10 cells expressing human ROR1 (high density); remark: listed apart in the source
[6] = target: human ROR1 (Receptor Tyrosine Kinase-Like Orphan Receptor 1) on the cell surface (human) (UniProt Q01973); assay: as above; remark: listed apart in the source
[7] = target: human ROR1 (Receptor Tyrosine Kinase-Like Orphan Receptor 1) on the cell surface (human) (UniProt Q01973); assay: as above; remark: listed apart in the source
[8] = target: human ROR1 (Receptor Tyrosine Kinase-Like Orphan Receptor 1) on the cell surface (human) (UniProt Q01973); assay: flow cytometry, LS174T cells expressing human ROR1 (low density); remark: listed apart in the source

human ROR1 (Receptor Tyrosine Kinase-Like Orphan Receptor 1) on the cell surface (human), sequence (Q01973 30-937): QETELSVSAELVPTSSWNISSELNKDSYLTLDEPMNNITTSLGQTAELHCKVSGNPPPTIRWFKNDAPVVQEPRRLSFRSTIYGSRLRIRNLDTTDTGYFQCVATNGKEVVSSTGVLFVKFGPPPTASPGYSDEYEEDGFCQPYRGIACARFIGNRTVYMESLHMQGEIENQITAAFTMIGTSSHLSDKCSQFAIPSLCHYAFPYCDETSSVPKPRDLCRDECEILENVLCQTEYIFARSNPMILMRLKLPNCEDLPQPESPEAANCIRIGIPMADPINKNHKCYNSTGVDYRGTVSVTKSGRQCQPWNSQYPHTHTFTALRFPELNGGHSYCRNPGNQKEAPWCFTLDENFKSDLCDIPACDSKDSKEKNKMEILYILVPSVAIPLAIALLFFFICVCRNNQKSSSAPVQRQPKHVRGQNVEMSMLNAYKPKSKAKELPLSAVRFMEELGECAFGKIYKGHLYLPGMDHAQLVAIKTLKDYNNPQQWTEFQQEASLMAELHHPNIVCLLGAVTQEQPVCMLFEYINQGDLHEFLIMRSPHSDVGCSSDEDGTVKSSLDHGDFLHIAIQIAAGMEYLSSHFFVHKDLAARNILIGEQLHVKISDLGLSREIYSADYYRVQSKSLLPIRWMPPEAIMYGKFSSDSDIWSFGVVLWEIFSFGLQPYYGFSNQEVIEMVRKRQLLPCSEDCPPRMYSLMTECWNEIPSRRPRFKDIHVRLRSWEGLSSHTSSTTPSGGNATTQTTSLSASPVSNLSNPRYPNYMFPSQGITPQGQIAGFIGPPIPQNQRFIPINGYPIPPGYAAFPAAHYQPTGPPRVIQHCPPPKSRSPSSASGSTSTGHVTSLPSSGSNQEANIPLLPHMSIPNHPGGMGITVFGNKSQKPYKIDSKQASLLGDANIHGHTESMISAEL

Question: For “mIgG-PE (PE labeled mouse IgG Ab) (antibody)”, which MFI [1] is on record?
Answer: 6.53

Question: What about the MFI [2] of the same substance?
Answer: 4.36

Question: What about the MFI [3] of the same substance?
Answer: 6.1

Question: And the MFI [4]?
Answer: 54

Question: What about the MFI [5] of the same substance?
Answer: 2.08

Question: What about the MFI [6] of the same substance?
Answer: 94.6

Question: And the MFI [7]?
Answer: 4.31

Question: What about the MFI [8] of the same substance?
Answer: 23.2

Question: Human IgG1 (antibody) was tested. Which MFI [4] did it give?
Answer: 316

Question: What about the MFI [8] of the same substance?
Answer: 30.8

Question: Which results are given for “goat anti human IgG-Fc specific PE secondary antibody, alone”?
Answer: MFI [1]: 9.92; MFI [2]: 15.5; MFI [3]: 5.67; MFI [4]: 45.3; MFI [5]: 3.01; MFI [6]: 125; MFI [7]: 4.45; MFI [8]: 22.6

Question: How did the MFI [1] turn out when “Hen Egg Lysozyme (HEL)-specific antibody” was run?
Answer: 13.3

Question: And the MFI [2]?
Answer: 12.1

Question: What about the MFI [3] of the same substance?
Answer: 9.86

Question: What about the MFI [5] of the same substance?
Answer: 3.86

Question: What about the MFI [6] of the same substance?
Answer: 1140

Question: And the MFI [7]?
Answer: 6.85
